Measured values taken from US20210179716A1 (Pfizer, published 2021).

Key:
human CD47 protein = biological target: T1, human CD47 protein (human, UniProt Q08722 19-139, limits assumed); assay: KD; method not stated
T1 construct: Soluble protein used for the KD measurements; construct not described; also called hCD47; CD47 (human)

cynomolgus CD47 protein = biological target: T2, cynomolgus CD47 protein (cynomolgus monkey, UniProt A0A2K5X523 19-139); assay: KD; method not stated
T2 construct: also called cyCD47; Cyno CD47

T1 sequence (Q08722 19-139 limits assumed): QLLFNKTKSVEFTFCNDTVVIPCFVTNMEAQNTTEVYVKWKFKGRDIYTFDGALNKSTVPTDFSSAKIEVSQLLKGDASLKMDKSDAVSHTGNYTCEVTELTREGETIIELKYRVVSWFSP

| Binder | Kd (human CD47 protein) | Kd (cynomolgus CD47 protein) |
| --- | --- | --- |
| P1A11_D99E (antibody, V domains shown, Variant of P01A11) VH: QVQLVQSGAEVKKPGSSVKVSCKASGYTFTNYAISWVRQAPGQGLEWMGGISPLFGTANYAQKFQGRVTITADESTSTAYMELSSLRSEDTAVYYCAREGGRSSDVGWYVGAMDVWGQGTLVTVSS VL: not shown | 1200 nM | > 1500 nM |
| P01A11_Y27G_L54I_G100A_M113L (antibody, V domains shown, Variant of P01A11) VH: QVQLVQSGAEVKKPGSSVKVSCKASGGTFTNYAISWVRQAPGQGLEWMGGISPIFGTANYAQKFQGRVTITADESTSTAYMELSSLRSEDTAVYYCARDAGRSSDVGWYVGALDVWGQGTLVTVSS VL: not shown | 154 nM | 198 nM |
| P01A11_Y27G_L54I_G100A_M113I (antibody, V domains shown, Variant of P01A11) VH: QVQLVQSGAEVKKPGSSVKVSCKASGGTFTNYAISWVRQAPGQGLEWMGGISPIFGTANYAQKFQGRVTITADESTSTAYMELSSLRSEDTAVYYCARDAGRSSDVGWYVGAIDVWGQGTLVTVSS VL: not shown | 263 nM | 371 nM |
| P01A11_T30S_N31S_L54I_G100A_M113L (antibody, V domains shown, Variant of P01A11) VH: QVQLVQSGAEVKKPGSSVKVSCKASGYTFSSYAISWVRQAPGQGLEWMGGISPIFGTANYAQKFQGRVTITADESTSTAYMELSSLRSEDTAVYYCARDAGRSSDVGWYVGALDVWGQGTLVTVSS VL: not shown | 106 nM | 120 nM |
| P1A11_W108F (antibody, V domains shown, Variant of P01A11) VH: QVQLVQSGAEVKKPGSSVKVSCKASGYTFTNYAISWVRQAPGQGLEWMGGISPLFGTANYAQKFQGRVTITADESTSTAYMELSSLRSEDTAVYYCARDGGRSSDVGFYVGAMDVWGQGTLVTVSS VL: not shown | 103 nM | 117 nM |
| P01A11_T30S_N31S_L54I_G100A_M113I (antibody, V domains shown, Variant of P01A11) VH: QVQLVQSGAEVKKPGSSVKVSCKASGYTFSSYAISWVRQAPGQGLEWMGGISPIFGTANYAQKFQGRVTITADESTSTAYMELSSLRSEDTAVYYCARDAGRSSDVGWYVGAIDVWGQGTLVTVSS VL: not shown | 75 nM | 105 nM |
| P01A11_T30S_N31S_L54I_G100A (antibody, V domains shown, Variant of P01A11) VH: QVQLVQSGAEVKKPGSSVKVSCKASGYTFSSYAISWVRQAPGQGLEWMGGISPIFGTANYAQKFQGRVTITADESTSTAYMELSSLRSEDTAVYYCARDAGRSSDVGWYVGAMDVWGQGTLVTVSS VL: not shown | 97 nM | 138 nM |
| P01A11_L54A_R102A (antibody, V domains shown, Variant of P01A11) VH: QVQLVQSGAEVKKPGSSVKVSCKASGYTFTNYAISWVRQAPGQGLEWMGGISPAFGTANYAQKFQGRVTITADESTSTAYMELSSLRSEDTAVYYCARDGGASSDVGWYVGAMDVWGQGTLVTVSS VL: not shown | 38 nM | 45 nM |
| P01A11_P53G_D105E (antibody, V domains shown, Variant of P01A11) VH: QVQLVQSGAEVKKPGSSVKVSCKASGYTFTNYAISWVRQAPGQGLEWMGGISGLFGTANYAQKFQGRVTITADESTSTAYMELSSLRSEDTAVYYCARDGGRSSEVGWYVGAMDVWGQGTLVTVSS VL: not shown | 241 nM | 351 nM |
| P01A11_G100V (antibody, V domains shown, Variant of P01A11) VH: QVQLVQSGAEVKKPGSSVKVSCKASGYTFTNYAISWVRQAPGQGLEWMGGISPLFGTANYAQKFQGRVTITADESTSTAYMELSSLRSEDTAVYYCARDVGRSSDVGWYVGAMDVWGQGTLVTVSS VL: not shown | > 1500 nM | > 1500 nM |
| P01A11_T30S_N31S_L54I_G100A_W108Y_M113L (antibody, V domains shown, Variant of P01A11) VH: QVQLVQSGAEVKKPGSSVKVSCKASGYTFSSYAISWVRQAPGQGLEWMGGISPIFGTANYAQKFQGRVTITADESTSTAYMELSSLRSEDTAVYYCARDAGRSSDVGYYVGALDVWGQGTLVTVSS VL: not shown | > 1500 nM | > 1500 nM |
| P01A11_P53G_D114E (antibody, V domains shown, Variant of P01A11) VH: QVQLVQSGAEVKKPGSSVKVSCKASGYTFTNYAISWVRQAPGQGLEWMGGISGLFGTANYAQKFQGRVTITADESTSTAYMELSSLRSEDTAVYYCARDGGRSSDVGWYVGAMEVWGQGTLVTVSS VL: not shown | 300 nM | 520 nM |
| P1A11_G100Q (antibody, V domains shown, Variant of P01A11) VH: QVQLVQSGAEVKKPGSSVKVSCKASGYTFTNYAISWVRQAPGQGLEWMGGISPLFGTANYAQKFQGRVTITADESTSTAYMELSSLRSEDTAVYYCARDQGRSSDVGWYVGAMDVWGQGTLVTVSS VL: not shown | > 1500 nM | > 1500 nM |
| P01A11_Y27G_L54I_G100A (antibody, V domains shown, Variant of P01A11) VH: QVQLVQSGAEVKKPGSSVKVSCKASGGTFTNYAISWVRQAPGQGLEWMGGISPIFGTANYAQKFQGRVTITADESTSTAYMELSSLRSEDTAVYYCARDAGRSSDVGWYVGAMDVWGQGTLVTVSS VL: not shown | 132 nM | 180 nM |
| P01A11_D105E (antibody, V domains shown, Variant of P01A11) VH: QVQLVQSGAEVKKPGSSVKVSCKASGYTFTNYAISWVRQAPGQGLEWMGGISPLFGTANYAQKFQGRVTITADESTSTAYMELSSLRSEDTAVYYCARDGGRSSEVGWYVGAMDVWGQGTLVTVSS VL: not shown | 48 nM | 62 nM |
| P01A11_W108A (antibody, V domains shown, Variant of P01A11) VH: QVQLVQSGAEVKKPGSSVKVSCKASGYTFTNYAISWVRQAPGQGLEWMGGISPLFGTANYAQKFQGRVTITADESTSTAYMELSSLRSEDTAVYYCARDGGRSSDVGAYVGAMDVWGQGTLVTVSS VL: not shown | 608 nM | 773 nM |
| P01A11_L54A_D114E (antibody, V domains shown, Variant of P01A11) VH: QVQLVQSGAEVKKPGSSVKVSCKASGYTFTNYAISWVRQAPGQGLEWMGGISPAFGTANYAQKFQGRVTITADESTSTAYMELSSLRSEDTAVYYCARDGGRSSDVGWYVGAMEVWGQGTLVTVSS VL: not shown | 31 nM | 46 nM |
| P1A11_S52I (antibody, V domains shown, Variant of P01A11) VH: QVQLVQSGAEVKKPGSSVKVSCKASGYTFTNYAISWVRQAPGQGLEWMGGIIPLFGTANYAQKFQGRVTITADESTSTAYMELSSLRSEDTAVYYCARDGGRSSDVGWYVGAMDVWGQGTLVTVSS VL: not shown | 1310 nM | > 1500 nM |

Binders with a lower Kd (human CD47 protein), results first:

| Kd (human CD47 protein) | Kd (cynomolgus CD47 protein) | Binder |
| --- | --- | --- |
| 28 nM | 36 nM | P1A11_G100S (antibody, V domains shown, Variant of P01A11) VH: QVQLVQSGAEVKKPGSSVKVSCKASGYTFTNYAISWVRQAPGQGLEWMGGISPLFGTANYAQKFQGRVTITADESTSTAYMELSSLRSEDTAVYYCARDSGRSSDVGWYVGAMDVWGQGTLVTVSS VL: not shown |
| 25 nM | 32 nM | P1A11_W108Y (antibody, V domains shown, Variant of P01A11) VH: QVQLVQSGAEVKKPGSSVKVSCKASGYTFTNYAISWVRQAPGQGLEWMGGISPLFGTANYAQKFQGRVTITADESTSTAYMELSSLRSEDTAVYYCARDGGRSSDVGYYVGAMDVWGQGTLVTVSS VL: not shown |
| 20 nM | 23 nM | P1A11_Y27G (antibody, V domains shown, Variant of P01A11) VH: QVQLVQSGAEVKKPGSSVKVSCKASGGTFTNYAISWVRQAPGQGLEWMGGISPLFGTANYAQKFQGRVTITADESTSTAYMELSSLRSEDTAVYYCARDGGRSSDVGWYVGAMDVWGQGTLVTVSS VL: not shown |
| 19 nM | 16 nM | P01A11_L54A_S104E (antibody, V domains shown, Variant of P01A11) VH: QVQLVQSGAEVKKPGSSVKVSCKASGYTFTNYAISWVRQAPGQGLEWMGGISPAFGTANYAQKFQGRVTITADESTSTAYMELSSLRSEDTAVYYCARDGGRSEDVGWYVGAMDVWGQGTLVTVSS VL: not shown |
| 8.5 nM | 11 nM | P1A11_G100A (antibody, V domains shown, Variant of P01A11) VH: QVQLVQSGAEVKKPGSSVKVSCKASGYTFTNYAISWVRQAPGQGLEWMGGISPLFGTANYAQKFQGRVTITADESTSTAYMELSSLRSEDTAVYYCARDAGRSSDVGWYVGAMDVWGQGTLVTVSS VL: not shown |
| 7 nM | 9.3 nM | P1A11_N31S (antibody, V domains shown, Variant of P01A11) VH: QVQLVQSGAEVKKPGSSVKVSCKASGYTFTSYAISWVRQAPGQGLEWMGGISPLFGTANYAQKFQGRVTITADESTSTAYMELSSLRSEDTAVYYCARDGGRSSDVGWYVGAMDVWGQGTLVTVSS VL: not shown |
| 5.6 nM | 7.6 nM | P01A11_P53G (antibody, V domains shown, Variant of P01A11) VH: QVQLVQSGAEVKKPGSSVKVSCKASGYTFTNYAISWVRQAPGQGLEWMGGISGLFGTANYAQKFQGRVTITADESTSTAYMELSSLRSEDTAVYYCARDGGRSSDVGWYVGAMDVWGQGTLVTVSS VL: not shown |
| 2.9 nM | 3.7 nM | P1A11_M113I (antibody, V domains shown, Variant of P01A11) VH: QVQLVQSGAEVKKPGSSVKVSCKASGYTFTNYAISWVRQAPGQGLEWMGGISPLFGTANYAQKFQGRVTITADESTSTAYMELSSLRSEDTAVYYCARDGGRSSDVGWYVGAIDVWGQGTLVTVSS VL: not shown |
| 2.7 nM | 3.3 nM | P1A11_F55L (antibody, V domains shown, Variant of P01A11) VH: QVQLVQSGAEVKKPGSSVKVSCKASGYTFTNYAISWVRQAPGQGLEWMGGISPLLGTANYAQKFQGRVTITADESTSTAYMELSSLRSEDTAVYYCARDGGRSSDVGWYVGAMDVWGQGTLVTVSS VL: not shown |
| 1.8 nM | 2.5 nM | P1A11_T30S (antibody, V domains shown, Variant of P01A11) VH: QVQLVQSGAEVKKPGSSVKVSCKASGYTFSNYAISWVRQAPGQGLEWMGGISPLFGTANYAQKFQGRVTITADESTSTAYMELSSLRSEDTAVYYCARDGGRSSDVGWYVGAMDVWGQGTLVTVSS VL: not shown |
| 0.86 nM | 1.2 nM | P1A11_M113L (antibody, V domains shown, Variant of P01A11) VH: QVQLVQSGAEVKKPGSSVKVSCKASGYTFTNYAISWVRQAPGQGLEWMGGISPLFGTANYAQKFQGRVTITADESTSTAYMELSSLRSEDTAVYYCARDGGRSSDVGWYVGALDVWGQGTLVTVSS VL: not shown |
| 0.69 nM | 1.3 nM | P1A11_L54I (antibody, V domains shown, Variant of P01A11) VH: QVQLVQSGAEVKKPGSSVKVSCKASGYTFTNYAISWVRQAPGQGLEWMGGISPIFGTANYAQKFQGRVTITADESTSTAYMELSSLRSEDTAVYYCARDGGRSSDVGWYVGAMDVWGQGTLVTVSS VL: not shown |
